T1: kinesin-4 (human full-length, unlabeled) (human, UniProt O95239 1-1232)
T1 sequence (looked up): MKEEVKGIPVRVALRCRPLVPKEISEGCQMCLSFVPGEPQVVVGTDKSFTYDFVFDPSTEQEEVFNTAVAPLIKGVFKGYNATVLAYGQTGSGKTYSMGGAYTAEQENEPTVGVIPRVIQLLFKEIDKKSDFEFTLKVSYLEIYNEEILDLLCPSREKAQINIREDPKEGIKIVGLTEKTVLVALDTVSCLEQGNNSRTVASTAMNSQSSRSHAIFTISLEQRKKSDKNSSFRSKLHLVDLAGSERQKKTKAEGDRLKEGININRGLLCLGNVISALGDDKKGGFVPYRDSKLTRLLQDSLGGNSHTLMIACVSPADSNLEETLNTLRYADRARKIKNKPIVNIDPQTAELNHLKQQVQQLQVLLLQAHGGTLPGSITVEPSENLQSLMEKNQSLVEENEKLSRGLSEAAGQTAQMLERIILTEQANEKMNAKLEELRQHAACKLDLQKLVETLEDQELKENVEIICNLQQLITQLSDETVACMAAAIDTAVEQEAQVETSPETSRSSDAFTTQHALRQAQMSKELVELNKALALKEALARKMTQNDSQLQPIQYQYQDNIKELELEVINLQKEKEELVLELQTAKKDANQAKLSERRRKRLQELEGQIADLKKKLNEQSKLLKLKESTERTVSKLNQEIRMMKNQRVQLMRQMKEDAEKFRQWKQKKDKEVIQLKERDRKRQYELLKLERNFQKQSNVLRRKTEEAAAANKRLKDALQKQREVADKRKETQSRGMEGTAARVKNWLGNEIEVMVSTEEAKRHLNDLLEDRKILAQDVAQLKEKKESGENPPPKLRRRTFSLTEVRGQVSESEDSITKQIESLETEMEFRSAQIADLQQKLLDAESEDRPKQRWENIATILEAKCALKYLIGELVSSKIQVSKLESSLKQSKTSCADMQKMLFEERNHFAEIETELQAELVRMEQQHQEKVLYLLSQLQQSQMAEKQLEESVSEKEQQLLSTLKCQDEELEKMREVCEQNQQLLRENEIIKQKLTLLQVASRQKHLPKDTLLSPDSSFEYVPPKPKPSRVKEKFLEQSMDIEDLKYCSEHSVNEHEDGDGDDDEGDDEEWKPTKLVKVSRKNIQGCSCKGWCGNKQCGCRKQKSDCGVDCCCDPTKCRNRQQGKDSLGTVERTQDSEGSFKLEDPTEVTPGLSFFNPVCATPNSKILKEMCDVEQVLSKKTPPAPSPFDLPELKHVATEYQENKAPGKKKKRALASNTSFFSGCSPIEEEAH

T2: kinesin-4ΔN (human kinesin-4, aa 733-1232) (human, UniProt O95239 733-1232)
T2 sequence (looked up): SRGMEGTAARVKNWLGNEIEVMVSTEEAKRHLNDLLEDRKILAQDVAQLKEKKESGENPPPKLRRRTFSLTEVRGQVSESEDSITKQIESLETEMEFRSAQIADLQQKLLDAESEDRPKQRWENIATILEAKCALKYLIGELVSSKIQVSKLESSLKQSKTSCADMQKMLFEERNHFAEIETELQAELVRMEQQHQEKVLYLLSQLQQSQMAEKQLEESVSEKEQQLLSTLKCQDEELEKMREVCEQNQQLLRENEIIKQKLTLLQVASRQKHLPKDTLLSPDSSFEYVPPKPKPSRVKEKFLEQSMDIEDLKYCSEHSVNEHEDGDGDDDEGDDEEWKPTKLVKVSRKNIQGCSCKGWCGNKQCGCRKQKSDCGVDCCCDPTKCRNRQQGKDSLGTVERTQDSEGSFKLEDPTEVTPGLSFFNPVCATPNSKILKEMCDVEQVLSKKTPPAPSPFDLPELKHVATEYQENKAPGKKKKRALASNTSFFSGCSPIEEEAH

T3: kinesin-4-GFP (human full-length kinesin-4, GFP-labeled) (human), O95239
T3 chain: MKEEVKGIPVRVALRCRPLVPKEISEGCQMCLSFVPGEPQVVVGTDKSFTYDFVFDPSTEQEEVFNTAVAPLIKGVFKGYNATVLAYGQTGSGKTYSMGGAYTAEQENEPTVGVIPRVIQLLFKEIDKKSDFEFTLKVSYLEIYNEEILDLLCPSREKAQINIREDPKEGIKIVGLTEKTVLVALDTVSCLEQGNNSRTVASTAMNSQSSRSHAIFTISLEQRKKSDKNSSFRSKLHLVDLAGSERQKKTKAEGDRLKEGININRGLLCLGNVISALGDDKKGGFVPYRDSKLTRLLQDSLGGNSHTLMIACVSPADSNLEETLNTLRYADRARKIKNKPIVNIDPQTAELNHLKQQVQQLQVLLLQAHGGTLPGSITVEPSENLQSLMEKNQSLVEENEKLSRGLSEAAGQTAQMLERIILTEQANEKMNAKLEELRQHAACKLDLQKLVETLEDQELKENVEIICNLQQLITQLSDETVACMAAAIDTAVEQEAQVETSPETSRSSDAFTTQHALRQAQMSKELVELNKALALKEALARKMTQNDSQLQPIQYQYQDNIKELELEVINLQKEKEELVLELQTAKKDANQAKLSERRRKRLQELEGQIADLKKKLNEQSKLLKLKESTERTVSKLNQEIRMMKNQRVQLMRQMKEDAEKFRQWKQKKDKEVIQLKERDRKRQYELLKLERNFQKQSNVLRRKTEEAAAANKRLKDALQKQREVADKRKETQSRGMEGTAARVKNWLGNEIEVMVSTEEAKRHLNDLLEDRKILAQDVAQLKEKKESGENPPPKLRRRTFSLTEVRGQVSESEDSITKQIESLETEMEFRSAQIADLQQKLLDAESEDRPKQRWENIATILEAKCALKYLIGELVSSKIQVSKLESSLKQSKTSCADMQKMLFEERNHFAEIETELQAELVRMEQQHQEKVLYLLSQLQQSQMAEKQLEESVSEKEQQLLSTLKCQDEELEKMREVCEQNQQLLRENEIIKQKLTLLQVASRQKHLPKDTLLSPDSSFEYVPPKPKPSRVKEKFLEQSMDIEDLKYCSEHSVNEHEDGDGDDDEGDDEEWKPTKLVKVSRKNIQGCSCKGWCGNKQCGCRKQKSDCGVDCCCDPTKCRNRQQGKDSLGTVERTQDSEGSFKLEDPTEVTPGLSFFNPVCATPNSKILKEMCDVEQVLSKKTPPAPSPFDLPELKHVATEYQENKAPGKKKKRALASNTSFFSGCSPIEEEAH


Assays:
[1] = target: T1, kinesin-4 (human full-length, unlabeled); assay: TIRF microscopy, end-tag formation on immobilized microtubules
[2] = target: T2, kinesin-4ΔN (human kinesin-4, aa …); assay: pull-down
[3] = target: T3, kinesin-4-GFP (human full-length …); assay: single-molecule fluorescence intensity analysis; conditions: remark: other sources report otherwise

| Kd [2] | Binder | also measured |
| --- | --- | --- |
|  | GFP-PRC1 (human full-length PRC1, aa 1-620, GFP-labeled) (natural protein, UniProt O43663 1-620, looked up) MRRSEVLAEESIVCLQKALNHLREIWELIGIPEDQRLQRTEVVKKHIKELLDMMIAEEESLKERLIKSISVCQKELNTLCSELHVEPFQEEGETTILQLEKDLRTQVELMRKQKKERKQELKLLQEQDQELCEILCMPHYDIDSASVPSLEELNQFRQHVTTLRETKASRREEFVSIKRQIILCMEALDHTPDTSFERDVVCEDEDAFCLSLENIATLQKLLRQLEMQKSQNEAVCEGLRTQIRELWDRLQIPEEEREAVATIMSGSKAKVRKALQLEVDRLEELKMQNMKKVIEAIRVELVQYWDQCFYSQEQRQAFAPFCAEDYTESLLQLHDAEIVRLKNYYEVHKELFEGVQKWEETWRLFLEFERKASDPNRFTNRGGNLLKEEKQRAKLQKMLPKLEEELKARIELWEQEHSKAFMVNGQKFMEYVAEQWEMHRLEKERAKQERQLKNKKQTETEMLYGSAPRTPSKRRGLAPNTPGKARKLNTTTMSNATANSSIRPIFGGTVYHSPVSRLPPSGSKPVAASTCSGKKTPRTGRHGANKENLELNGSILSGGYPGSAPLQRNFSINSVASTYSEFAKDPSLSDSSTVGLQRELSKASKSDATSGILNSTNIQS | binding result [1]: binds |
| 2300 ± 600 nM | PRC1NSΔC2 (human PRC1, aa 1-117) (domain or fragment, UniProt O43663 1-117, looked up) MRRSEVLAEESIVCLQKALNHLREIWELIGIPEDQRLQRTEVVKKHIKELLDMMIAEEESLKERLIKSISVCQKELNTLCSELHVEPFQEEGETTILQLEKDLRTQVELMRKQKKER |  |
|  | kinesin-4-GFP (human full-length kinesin-4, GFP-labeled), O95239 1-1232 (natural protein) MKEEVKGIPVRVALRCRPLVPKEISEGCQMCLSFVPGEPQVVVGTDKSFTYDFVFDPSTEQEEVFNTAVAPLIKGVFKGYNATVLAYGQTGSGKTYSMGGAYTAEQENEPTVGVIPRVIQLLFKEIDKKSDFEFTLKVSYLEIYNEEILDLLCPSREKAQINIREDPKEGIKIVGLTEKTVLVALDTVSCLEQGNNSRTVASTAMNSQSSRSHAIFTISLEQRKKSDKNSSFRSKLHLVDLAGSERQKKTKAEGDRLKEGININRGLLCLGNVISALGDDKKGGFVPYRDSKLTRLLQDSLGGNSHTLMIACVSPADSNLEETLNTLRYADRARKIKNKPIVNIDPQTAELNHLKQQVQQLQVLLLQAHGGTLPGSITVEPSENLQSLMEKNQSLVEENEKLSRGLSEAAGQTAQMLERIILTEQANEKMNAKLEELRQHAACKLDLQKLVETLEDQELKENVEIICNLQQLITQLSDETVACMAAAIDTAVEQEAQVETSPETSRSSDAFTTQHALRQAQMSKELVELNKALALKEALARKMTQNDSQLQPIQYQYQDNIKELELEVINLQKEKEELVLELQTAKKDANQAKLSERRRKRLQELEGQIADLKKKLNEQSKLLKLKESTERTVSKLNQEIRMMKNQRVQLMRQMKEDAEKFRQWKQKKDKEVIQLKERDRKRQYELLKLERNFQKQSNVLRRKTEEAAAANKRLKDALQKQREVADKRKETQSRGMEGTAARVKNWLGNEIEVMVSTEEAKRHLNDLLEDRKILAQDVAQLKEKKESGENPPPKLRRRTFSLTEVRGQVSESEDSITKQIESLETEMEFRSAQIADLQQKLLDAESEDRPKQRWENIATILEAKCALKYLIGELVSSKIQVSKLESSLKQSKTSCADMQKMLFEERNHFAEIETELQAELVRMEQQHQEKVLYLLSQLQQSQMAEKQLEESVSEKEQQLLSTLKCQDEELEKMREVCEQNQQLLRENEIIKQKLTLLQVASRQKHLPKDTLLSPDSSFEYVPPKPKPSRVKEKFLEQSMDIEDLKYCSEHSVNEHEDGDGDDDEGDDEEWKPTKLVKVSRKNIQGCSCKGWCGNKQCGCRKQKSDCGVDCCCDPTKCRNRQQGKDSLGTVERTQDSEGSFKLEDPTEVTPGLSFFNPVCATPNSKILKEMCDVEQVLSKKTPPAPSPFDLPELKHVATEYQENKAPGKKKKRALASNTSFFSGCSPIEEEAH | stoichiometry N [3]: 2 |
| 300 ± 60 nM | PRC1NSΔC5 (human PRC1, aa 1-303) (domain or fragment, UniProt O43663 1-303, looked up) MRRSEVLAEESIVCLQKALNHLREIWELIGIPEDQRLQRTEVVKKHIKELLDMMIAEEESLKERLIKSISVCQKELNTLCSELHVEPFQEEGETTILQLEKDLRTQVELMRKQKKERKQELKLLQEQDQELCEILCMPHYDIDSASVPSLEELNQFRQHVTTLRETKASRREEFVSIKRQIILCMEALDHTPDTSFERDVVCEDEDAFCLSLENIATLQKLLRQLEMQKSQNEAVCEGLRTQIRELWDRLQIPEEEREAVATIMSGSKAKVRKALQLEVDRLEELKMQNMKKVIEAIRVELVQ |  |

— PMC3761943 (Cell, 2013)
